Results on two molecules are retold here after publication PMC3739937 (Molecular Microbiology, 2013).

Sequences and labels used below:
T1: Colicin N (E. coli, UniProt P08083 1-387)
T1 sequence (looked up): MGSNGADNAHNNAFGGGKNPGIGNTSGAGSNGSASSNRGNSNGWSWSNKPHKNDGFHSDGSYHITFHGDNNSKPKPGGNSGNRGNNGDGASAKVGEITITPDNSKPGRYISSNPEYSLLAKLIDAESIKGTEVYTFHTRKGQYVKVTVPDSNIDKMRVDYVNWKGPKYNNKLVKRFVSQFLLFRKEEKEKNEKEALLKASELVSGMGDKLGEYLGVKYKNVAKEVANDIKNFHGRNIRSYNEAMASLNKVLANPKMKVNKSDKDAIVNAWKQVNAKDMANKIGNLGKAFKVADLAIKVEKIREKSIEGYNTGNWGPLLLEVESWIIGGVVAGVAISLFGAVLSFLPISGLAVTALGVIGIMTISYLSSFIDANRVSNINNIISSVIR

B1: ColN-T (isolated unstructured T-domain of colicin N) (domain or fragment, E. coli, UniProt P08083 1-90, looked up)
chain: MGSNGADNAHNNAFGGGKNPGIGNTSGAGSNGSASSNRGNSNGWSWSNKPHKNDGFHSDGSYHITFHGDNNSKPKPGGNSGNRGNNGDGA
B2: OmpF (natural protein, E. coli, UniProt P02931 23-362, looked up)
chain: AEIYNKDGNKVDLYGKAVGLHYFSKGNGENSYGGNGDMTYARLGFKGETQINSDLTGYGQWEYNFQGNNSEGADAQTGNKTRLAFAGLKYADVGSFDYGRNYGVVYDALGYTDMLPEFGGDTAYSDDFFVGRVGGVATYRNSNFFGLVDGLNFAVQYLGKNERDTARRSNGDGVGGSISYEYEGFGIVGAYGAADRTNLQEAQPLGNGKKAEQWATGLKYDANNIYLAANYGETRNATPITNKFTNTSGFANKTQDVLLVAQYQFDFGLRPSIAYTKSKAKDVEGIGDVDLVNYFEVGATYYFNKNMSTYVDYIINQIDSDNKLGVGSDDTVAVGIVYQF

The test “OmpF” deals with B2. The experiment in a line: ITC.
The next test deals with T1, Colicin N. The experiment in a line: ITC. (In ITC the heat of successive injections is recorded.)

What is called Kd is the free concentration of one partner at which half of the binding sites on the other are occupied at equilibrium, for simple one-to-one binding. Low readings indicate tighter binding, high ones weaker binding. The term stoichiometry N denotes the number of molecules, sites or subunits per partner or assembly.

With B1, in the test with OmpF, binding was characterised by a dissociation constant (Kd) of 3.48 µM, the dH is -19.1 kcal/mol and the “stoichiometry N” value was 2.29.
Regarding B2, the binding result with Colicin N is listed as “binds”.
